Source: the nanobody polyreactivity screen of Harvey et al. (2022)

Test: yeast display, Sf9 membrane polyspecificity reagent, FACS + sequencing; frameworks hold sequencing errors
Outline: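 After 36–48 hours of galactose induction, yeast (Saccharomyces cerevisiae BJ5465) displaying a synthetic nanobody library were stained at 4 °C for 1 hour with 10% biotinylated, detergent-solubilized Sf9 membrane reagent. Streptavidin microbeads enriched the stained cells before FACS sorting into low and high (top ~1%) gates on anti-HA and streptavidin fluorescence. Each clone's polyreactivity label reflects its gate of origin.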

| Sequence | polyreactivity (PSR sort gate) |
| --- | --- |
| QVQLVESGGGLVQAGGSLRLSCAASGRILYYYAMGWYRQAPGKERELVAGITTDDSTNYADSVKGRFTISRDNAKNTVYFQMNSLKPEDTAVYYCAAKYVHGEYDYWGQGTQVTVSS | low polyreactivity |
| QVQLVESGGGLVQAGGSLRLSCAASGRIQDINAMGWYRQAPGKERELVAAISYGGGTTYYADSVKGRFTISRDNAKNTVYLQMNSLKPEDTAVYYCAKDGYFPEFDYWGQGTQVTVSS | high polyreactivity |
| QVQLVESGGGLVQAGGSLRLSCAASGRIRFNVMGWYRQAPGKERELVAAITGGGTTYYADSVKGRFTISRDNAKNTVYLQMNSLKPEDTAVYYCAARALYSRINQIPSYYWGQGTQVTVSS | high polyreactivity |
| QVQLVESGGGLVQAGGSLRLSCAASGRISAFNSMGWYRQAPGKERELVAAINVSGGNTYYADSVKGRFTISRDNAKNTFFLQMNSLKPEDTAVYYCAAERRRWGLDYYYWGQGTQVTVSS | high polyreactivity |
| QVQLVESGGGLVQAGGSLRLSCAASGRISARYVMGWYRQAPGKERELVAAISWSGDRTYYADSVKGRFTISRDNAKNTVYLQMNSLKPEDTAVYYCATGFYSRLAYGYGYWGQGSQVTVSS | high polyreactivity |
| QVQLVESGGGLVQAGGSLRLSCAASGRISASYAMGWYRQAPGKERELVAAITGSGGSTYYADSVKGRFTISRDNAKNTVYVQMNSLNPEDTAVYYCAADPGWAWWVLNYWVQGTQVTVSS | low polyreactivity |
| QVQLVESGGGLVQAGGSLRLSCAASGRISASYAMGWYRQAPGKEREWVAAITGSGGSTYYADSVKGRFTISRDNAQNTVYLQMNSLKPEDTGVYYCAAEPVLSVFFEFDSWGQGTQVTVSS | low polyreactivity |
| QVQLVESGGGLVQAGGSLRLSCAASGRISFRIRWDGIDRRLGKKGSWLPLLTNTGSTNYADSVKGRFTISRDNAKNTVYLQMNSLKPEDTAVYYCNADQTGGSSYPAYFEYDYWGQGTQVTVSS | low polyreactivity |
| QVQLVESGGGLVQAGGSLRLSCAASGRISGFYTMGWYRQAPGKERELVATITRSGSRTYYADSVKGRFTISRDNAKNTVYLQMNSLKPEDTAVYYCARSQAVYDGWFAKFGYWGQGTQVTVSS | low polyreactivity |
| QVQLVESGGGLVQAGGSLRLSCAASGRISGLYAMGWSRQAPGKEWELVADSTYYADSVKGRFTISRDNAKNTVYLQMNSLKEEDTAVYYCAAVGGGTSTYSGDYWGQGTQVTVSS | high polyreactivity |
| QVQLVESGGGLVQAGGSLRLSCAASGRISGWNAMGWYRQAPGKERELVAASTWSDGSTYYADSVKGRFTISRDNAKNTVYLQMNSLKPEDTAVYYCAAEYGWYAGDPYYGYDYYWGQGTQVTVSS | high polyreactivity |
| QVQLVESGGGLVQAGGSLRLSCAASGRISIIYAMGWYRQAPGKERELVARISGSGGSTNYADSVKGRFTISRDNAKNTVYLQMISLKPEDTAVYYCAAVPWRIHKYYYWGQGTQVTVSS | high polyreactivity |
| QVQLVESGGGLVQAGGSLRLSCAASGRISKRNVMGWYRQAPGKERELVAGITSTGSTSYADSVKGRFTISRDNAKNTVYLQMNSLKPEDTAVYYCAARGQATYNWGQGTQVTVSS | high polyreactivity |
| QVQLVESGGGLVQAGGSLRLSCAASGRISPKNAMGWNTQAPGKERELVATIRKIGGRTYYADSVKGRFTISRDNAKNTVYLQMNSLKPEDTAVYYCATDFAPSYYPDRFDYWGQGTQVTVSS | low polyreactivity |
| QVQLVESGGGLVQAGGSLRLSCAASGRISRGYAMGWYRQAPGKERELVAAIDSDGDTNYADSVKGRFTISRDNAKNTVYLQMNRLKAEDTAVYYCNKDGAYKTAYKRWTLYDYWGQGTQVTVSS | low polyreactivity |
| QVQLVESGGGLVQAGGSLRLSCAASGRISRLYAMGWYRQAPGKERELVAAITDSGGSTYYADSVKGRFTISRDNAKNTVYLHMNSLKPEDTAVYDCAATWSNWYREYYYWGQGTQVTVSS | high polyreactivity |
| QVQLVESGGGLVQAGGSLRLSCAASGRISSYYVMGWYRQAPGKERELVAAITGGDSTNYADSVKGRFTISRDNAKNTVYLQMNSLKPEDTAVYYCAAKAYSYSRWGYYGYYYWGQGSQVTVSS | high polyreactivity |
| QVQLVESGGGLVQAGGSLRLSCAASGRISTAYAMGWYRQAPGKERELVAAISSGTSTTYADSVKGRFTISRDNAKNTVYLQMNSLQPEDTAVYYCNADSWYGHYDSWGQGTQVTESS | low polyreactivity |
| QVQLVESGGGLVQAGGSLRLSCAASGRISTYTMGWYRQAPGKERELVATISTDASTNYADSVKGRFTISRDNAKNTVYLQINSLKPEDTAVYYCAAVIVNQYYDYWGQGTQVTVSS | low polyreactivity |
| QVQLVESGGGLVQAGGSLRLSCAASGRISVFNAMGWYRHAPGKERELVAAITSGGSTNYADSVKGRFTISRDNAKNTVYLQMNSLKPEDTAVYYCNADVYHSHEPHYDYWGQGTQVTVSS | low polyreactivity |
| QVQLVESGGGLVQAGGSLRLSCAASGRISVFNAMGWYRQAPGKERELVATITDGGSTYYADSVKGRFTISRDNAKNSVYLQMNSLKPEDTAVYYCAKKQVTTDVSSETFVLEMDYLGQGTQVTVSS | low polyreactivity |

| Sequence | polyreactivity (PSR sort gate) |
| --- | --- |
| QVQLVESGGGLVQAGGSLRLSCAASGRISVFYTMGWYRQAPGKERELVAVIRTSGGRTNYADSVKGRFTISRDNAKNTVYLQMNSLKPEDTAVYYCAARVVRYGYKYYYWGQGTQVTVSS | low polyreactivity |
| QVQLVESGGGLVQAGGSLRLSCAASGRISWGYAMGWYRQAPGKERELVAVINFNGGRTYYADSVKGRFTISRDNAKNTVYLQMNSLKAEDTAVYYCAADSGYEYDYWGQGTQVTVSS | low polyreactivity |
| QVQLVESGGGLVQAGGSLRLSCAASGRISYANSMGWYRQAPGKESELVASITYSAGSTYADSVKGRFTISRDNAKNTVYLQMNSLKPEDTAVYYCAKRPSQHYRSYLMDYWGQGTQVTVSS | low polyreactivity |
| QVQLVESGGGLVQAGGSLRLSCAASGRISYLYTMGWYRQAPGKERELVAAIRWRDGSTYYADSVKGRFTISRDNAKNTVYLQMNSLKPEDTAVYYCAKRFAGGEYGYYWGQGTQVTVSS | low polyreactivity |
| QVQLVESGGGLVQAGGSLRLSCAASGRISYYYLGWYRQAPGKERELVAAISWNGGRTYYADSVKGRFTISRDNAKNTVYLQMNSLKPEDTAVYYCAAKTGYYPYGYWGQGTQVTVSS | high polyreactivity |
| QVQLVESGGGLVQAGGSLRLSCAASGRIVGRYVMGWYRQARGKERELVAAITSGGSTYYADSVKGRFTISRDNAKNTVYLQMNSLKPEDTAVYYCAAKWRSPRYYLYGYWGQGTQVTVSS | high polyreactivity |
| QVQLVESGGGLVQAGGSLRLSCAASGRIVSLNAMGWNRQAPGKERELVAGIRKRGRSTYYADSVKGRFTISRDNAKNTVYLQMNSLKPEDTAVYYCAAQPALTYRFYYWGQGTQVTVSS | high polyreactivity |
| QVQLVESGGGLVQAGGSLRLSCAASGRIVVPYAMGWYRQAPGKERELVAAITSGGSTYYADSVKGRFTISRDNAKNTVYLQMNSLKPEDTAVYYCAATSRRSSETYYFWGQGTQVTVSS | high polyreactivity |
| QVQLVESGGGLVQAGGSLRLSCAASGRIWSNAMGWYRQAPGKERELVAVISSRGGSTYYADSVKGRFTISRDNAKNTVYFQMNSLKPEDTAVYYCAARQRAKYNYWGQGTQVTVSS | high polyreactivity |
| QVQLVESGGGLVQAGGSLRLSCAASGRIYAMGWYRQAPGKERELVAAISRGGSTYYADSVKGRFTISRDNAKNTVYLQKNSLKPEDTAVYYCNRKSYRLRWKVRGQYLLGYDWGQGTQVTVSS | high polyreactivity |
| QVQLVESGGGLVQAGGSLRLSCAASGRIYAMGWYRQAPGKERELVAAISYSGGSTYYADSVKGRFTISRDNAKNTVYLQMNSLKPEDTAVYYCAAVIYRGYYYWGQGTQVTVSS | high polyreactivity |
| QVQLVESGGGLVQAGGSLRLSCAASGRIYGAYAMGWYRQAPGKEMEMVAAITSAGSTLYADSVKGRFTISRDNAMNTVYLQMNSLNPEDTAVYYCAADGIARAYVLFDAYDFLYDYWGQGTQVTVSS | low polyreactivity |
| QVQLVESGGGLVQAGGSLRLSCAASGRIYLRYTMGWYRQAPGKERELVAAISARTTGTYYADSVKGRFTISRDNAKNTVYLQMKSLKPEDTAVYYCASKSKLSRDLYSWGQGTQVTVSS | low polyreactivity |
| QVQLVESGGGLVQAGGSLRLSCAASGRIYRNAMGWYRPAPGKERELVAAISSRGASTYYADSVKGRFTITRDNAKNTVYLQMNSLKPEDTAVYYCAARTSSSSGYYAREYWGQGTQVTVSS | high polyreactivity |
| QVQLVESGGGLVQAGGSLRLSCAASGRIYTWNAMGWYRQAPGKERDLVASISRSGTSTYYADSVKGRNTISRDNALTTVYLQMNSLKPEDTAVYYCAAKTSRGDRTQVEYWGQGTQVTVSS | high polyreactivity |
| QVQLVESGGGLVQAGGSLRLSCAASGRIYVKNAMGWYRPAPGKERELVAAINWRGTSTYYADSVKGRFTISRDNAKNTVYLQMKSLKPEDTAVYYCNRVLGYPYGVDYWGQGTQVTVSS | high polyreactivity |
| QVQLVESGGGLVQAGGSLRLSCAASGRIYWWYAMGGSRQEPGKERELVAGISWSGGSTYYADSVKGRFTISRDNAKNTVYLQMNSLKPEDSAVYYCNAQYASGRSYFFYWHRFDYGGQGTQVTVSS | high polyreactivity |
| QVQLVESGGGLVQAGGSLRLSCAASGRIYYNAMGWYRQAPGKEGELVAAISGSGTRTYYADSVKGRFTISRDNAKTTVYLQMNSQKPEDTAVYYCARYYSHYSTYDYVRYGYWGQGTQVTVSS | high polyreactivity |
| QVQLVESGGGLVQAGGSLRLSCAASGRIYYYAMGWYRQAPGKERELVAAISRGGSTKYADSVKGRFTISRDNAKNTVYLQMNSLKPEETAVYYCAAGGTVYRYDYWGQGTQVTVSS | low polyreactivity |
| QVQLVESGGGLVQAGGSLRLSCAASGRLFDSNARGWYSQAPGKERELVAAISSGASTYYADSVKGRFTISRDNAKNTVYLQMNSLKPEDTAVYYCAVRLRYAYRARGNYWGQGTQVTVSS | low polyreactivity |
